Target: CXCL8 (human)

Substance	mean IC50 (three biological replicates) of inhibition of primary human granulocyte migration induced by the EC80 dose of CXCL8 [M]
P1156:G4S:P1243 two-warhead evasin (from UniProt V5HBW0;A0A0C9S461)	7.5e-09
P1243:G4S:P1156 two-warhead evasin (from UniProt A0A0C9S461;V5HBW0)	3.8e-08

Source: publication PMC5910400
